Laboratory results: publication PMC8137956, “Orphan GPR116 mediates the insulin sensitizing effects of the hepatokine FNDC4 in adipose tissue” (Nature Communications, 2021)

Experiments:
[1] = biological target: T1, human GPR116 with C-terminal fused FLAG, stably overexpressed (human, UniProt Q8IZF2 22-1346); test: flow cytometry on cells; saturation binding of FcsFNDC4 or Fc control on HEK293A cells with stable human GPR116-FLAG OE or mock cells; 4 °C, PBS with 3% FBS; anti-human IgG-PE; Kd from total binding; conditions: one partner purified
T1 construct: human GPR116, recombined from the pEntry1a GPR116 plasmid into plenti6/V5 DEST; Same construct in two HEK293 lines; also called GPR116 OE; HEK293T GPR116 (human) OE cells; not shown: FLAG, C-terminal, kept
T1 sequence (looked up): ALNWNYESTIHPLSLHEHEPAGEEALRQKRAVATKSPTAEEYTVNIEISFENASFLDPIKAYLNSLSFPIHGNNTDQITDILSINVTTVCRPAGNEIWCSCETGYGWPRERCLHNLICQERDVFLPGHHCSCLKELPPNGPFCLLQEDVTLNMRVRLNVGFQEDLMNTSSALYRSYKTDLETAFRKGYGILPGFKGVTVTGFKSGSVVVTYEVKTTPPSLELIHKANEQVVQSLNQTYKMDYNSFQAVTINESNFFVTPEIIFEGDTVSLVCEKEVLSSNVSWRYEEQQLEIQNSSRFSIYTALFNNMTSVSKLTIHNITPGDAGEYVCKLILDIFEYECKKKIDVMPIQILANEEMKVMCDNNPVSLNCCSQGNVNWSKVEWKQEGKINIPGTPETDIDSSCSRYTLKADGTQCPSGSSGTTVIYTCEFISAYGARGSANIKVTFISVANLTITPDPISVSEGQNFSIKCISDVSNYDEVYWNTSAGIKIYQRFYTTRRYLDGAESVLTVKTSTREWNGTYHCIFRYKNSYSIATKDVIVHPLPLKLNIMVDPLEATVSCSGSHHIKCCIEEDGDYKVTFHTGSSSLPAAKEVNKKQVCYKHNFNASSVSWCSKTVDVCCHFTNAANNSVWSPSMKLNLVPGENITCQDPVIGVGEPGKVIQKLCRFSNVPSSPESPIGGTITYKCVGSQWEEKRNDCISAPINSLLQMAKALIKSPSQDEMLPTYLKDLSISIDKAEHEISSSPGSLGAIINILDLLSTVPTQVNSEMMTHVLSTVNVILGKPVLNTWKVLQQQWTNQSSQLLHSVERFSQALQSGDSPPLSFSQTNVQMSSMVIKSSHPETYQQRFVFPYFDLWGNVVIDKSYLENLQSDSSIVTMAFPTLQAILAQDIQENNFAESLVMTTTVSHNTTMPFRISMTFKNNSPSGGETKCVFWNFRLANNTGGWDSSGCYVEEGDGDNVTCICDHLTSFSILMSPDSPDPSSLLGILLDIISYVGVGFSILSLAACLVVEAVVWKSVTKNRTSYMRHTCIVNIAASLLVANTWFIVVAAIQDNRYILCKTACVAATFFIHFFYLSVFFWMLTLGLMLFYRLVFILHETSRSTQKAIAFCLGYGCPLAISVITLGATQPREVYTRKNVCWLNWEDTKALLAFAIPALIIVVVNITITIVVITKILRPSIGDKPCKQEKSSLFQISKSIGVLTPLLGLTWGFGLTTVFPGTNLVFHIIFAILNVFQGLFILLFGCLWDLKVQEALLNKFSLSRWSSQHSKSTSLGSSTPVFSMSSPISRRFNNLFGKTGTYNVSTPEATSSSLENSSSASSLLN

[2] = biological target: T1, human GPR116 with C-terminal fused …; test: flow cytometry on cells; saturation binding of FcsFNDC4 or Fc control on HEK293T cells with stable human GPR116-FLAG OE or mock cells; also in excess of sFNDC4 (1 mM) for non-specific binding; 4 °C, PBS with 3% FBS; anti-human IgG-PE; Kd from specific binding; conditions: one partner purified

B1: 6xHis-Fc-sFNDC4 fusion protein (extracellular part of mouse FNDC4 fused with human IgG Fc) (Fc fusion)
chain: RPPSPVNVTVTHLRANSATVSWDVPEGNIVIGYSISQQRQNGPGQRVIREVNTTTRACALWGLAEDSDYTVQVRSIGLRGESPPGPRVHFRTLKGSDRLPSNSSSPGDITVEGLDGERPLQTGE
notes: extracellular part of mouse FNDC4 (sFNDC4), stated as aa 40-160; also called FcFNDC4; FcsF4; not shown: 6xHis, N-terminal, kept; Fc (human IgG), N-terminal, kept
Kd [1]: 33 ± 10 nM | Kd [2]: 25 ± 5 nM
